The target of series [1] is SecA (wild type) (E. coli) (UniProt P10408).
Series [2] concerns the target SecA_(795Fl), SecA_(A795C) labelled with 5-iodoacetamidofluorescein (E. coli) (UniProt P10408). Briefly: other fluorescence titration.
Series [3] addresses SecA-SecYEG complex with SecYE_(L106C)G uncross-linked (106) in proteoliposomes (E. coli) (UniProt P10408).
Series [4] addresses SecA-SecYEG complex with SecYE_(L106C)G cross-linked (106X, back-to-back dimer) in proteoliposomes (E. coli) (UniProt P10408).
Series [5] concerns the molecule itself. Briefly: cross-linking.
Series [6] addresses T1, SecY subunit (within wild-type SecYEG) (E. coli, UniProt P0AGA2 1-443).
T1 sequence: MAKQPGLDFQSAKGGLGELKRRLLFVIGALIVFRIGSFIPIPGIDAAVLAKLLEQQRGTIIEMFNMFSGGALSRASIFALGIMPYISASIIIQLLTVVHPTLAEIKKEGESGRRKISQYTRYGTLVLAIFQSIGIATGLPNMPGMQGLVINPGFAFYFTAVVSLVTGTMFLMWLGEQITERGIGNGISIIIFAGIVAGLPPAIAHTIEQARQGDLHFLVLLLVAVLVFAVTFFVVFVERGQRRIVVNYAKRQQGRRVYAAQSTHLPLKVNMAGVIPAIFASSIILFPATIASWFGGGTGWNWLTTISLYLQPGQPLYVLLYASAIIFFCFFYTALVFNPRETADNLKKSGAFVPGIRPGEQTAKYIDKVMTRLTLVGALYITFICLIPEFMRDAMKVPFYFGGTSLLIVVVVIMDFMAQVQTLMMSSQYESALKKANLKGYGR
Briefly: cross-linking.

The target of series [7] is SecA-SecYEG complex (wild-type SecYEG in proteoliposomes with SecA) (E. coli, UniProt P10408;P0AGA2;P0AG96;P0AG99).

As to “SecYE_(L106C)G cross-linked (106X), back-to-back dimer (from UniProt P0AGA2;P0AG96;P0AG99) (complex)”, the Kd in series [1] was 78 nM; in series [2], less than 1 nM.
On to “proOmpA (full-length, wild type) (from UniProt P0A910 1-346) (natural protein)”, for which the Kd was 93 nM in series [3] and 92 nM in series [4].

B1: SecE subunit (within wild-type SecYEG) (natural protein)
chain: MSANTEAQGSGRGLEAMKWVVVVALLLVAIVGNYLYRDIMLPLRALAVVILIAAAGGVALLTTKGKATVAFAREARTEVRKVIWPTRQETLHTTLIVAAVTAVMSLILWGLDGILVRLVSFITGLRF
Take B1: the binding result in series [5] and in series [6] was “binds” each time.

B2: proOmpA (full-length, wild type) (natural protein)
chain: MKKTAIAIAVALAGFATVAQAAPKDNTWYTGAKLGWSQYHDTGFINNNGPTHENQLGAGAFGGYQVNPYVGFEMGYDWLGRMPYKGSVENGAYKAQGVQLTAKLGYPITDDLDIYTRLGGMVWRADTKSNVYGKNHDTGVSPVFAGGVEYAITPEIATRLEYQWTNNIGDAHTIGTRPDNGMLSLGVSYRFGQGEAAPVVAPAPAPAPEVQTKHFTLKSDVLFNFNKATLKPEGQAALDQLYSQLSNLDPKDGSVVVLGYTDRIGSDAYNQGLSERRAQSVVDYLISKGIPADKISARGMGESNPVTGNTCDNVKQRAALIDCLAPDRRVEIEVKGIKDVVTQPQA
As for B2, binding in series [7] was put at a Kd of 72 ± 41 nM.
